In the supplement of paper PMC10724198:
± gives the standard deviation of the averaged measurements.

system: Saccharomyces cerevisiae; assay: protein stability index of tFT-peptide fusion (C-terminal peptide) (PSI (0-1 scale)); higher = more stable (slower turnover); conditions: genetic background: wild type; temperature: 30 C
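Also: PSI is a weighted mean of sequencing reads over stability bins, variants kept only with over 10 reads, mCherry proximal and sfGFP distal, peptide attached via GGGS linker.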

| Sequence | protein stability index |
| --- | --- |
| MWAEWLCHGDRN | 0.742 ± 0.068 |
| WDNGQVRLLRYV | 0.593 ± 0.015 |
| GAVVGGRCFCRR | 0.715 ± 0.012 |
| RVKFIEQASRFV | 0.764 ± 0.12 |
| GGRVAGSMGGGG | 0.719 ± 0.056 |
| FLLVLVPFCALF | 0.547 ± 0.11 |
| PFVGFSLLWLGF | 0.567 ± 0.017 |
| PLLPRSILSATG | 0.641 ± 0.043 |
| AWGGELGATSGG | 0.711 ± 0.0094 |
| GFSAGVSHSGAG | 0.661 ± 0.017 |
| SPHPLPRPTTRP | 0.708 ± 0.12 |
| PPPIPLSPPLVL | 0.72 ± 0.014 |
| IDFISSVLSYLS | 0.663 ± 0.013 |
| AVGGGGRLMCGV | 0.645 ± 0.053 |
| HPTFARIPPIPP | 0.525 ± 0.0088 |
| RNCSSALPPPPS | 0.7154 ± 0.0028 |
| WGGGLGTAVVGV | 0.643 ± 0.021 |
| NKTIVNNVKIRY | 0.574 ± 0.0065 |
| RRLRWQNKIIGI | 0.868 ± 0.13 |
| YQFAALRFTFPL | 0.647 ± 0.044 |
| PLRDIRSVRYSS | 0.685 ± 0.053 |
| IFWGFSFRGWGC | 0.683 ± 0.015 |
| LPSPHPPPPPLS | 0.673 ± 0.13 |
| REMDDRLEQSVP | 0.743 ± 0.017 |
| SFWWCSARSFQG | 0.715 ± 0.03 |
| PTVGGGLDGVGR | 0.669 ± 0.063 |

| Sequence | protein stability index |
| --- | --- |
| PAVGPDGTIRPL | 0.706 ± 0.037 |
| PHRPIGRVKHAS | 0.71 ± 0.038 |
| LTRFQPTPCLPP | 0.691 ± 0.0074 |
| TRRLILSPIRHF | 0.636 ± 0.015 |
| PWPPRPPPPPSL | 0.694 ± 0.048 |
| QKKKKRKDKRTK | 0.7067 ± 0.0053 |
| GHDWRNPRLVED | 0.645 ± 0.062 |
| FDPSFLSVCRSK | 0.72 ± 0.021 |
| PTPHLHPTSLPG | 0.724 ± 0.1 |
| PCFLLPLPHTPP | 0.707 ± 0.024 |
| SVSGRYYAVRVR | 0.566 ± 0.0072 |
| TNTEEKRKIRRS | 0.697 ± 0.11 |
| GLPPLAMPALSI | 0.72 ± 0.057 |
| ARGDDGSTCSRG | 0.697 ± 0.059 |
| RGGGGRGFAGRK | 0.608 ± 0.038 |
| KWQRIKNSPNRK | 0.749 ± 0.059 |
| VEGGGYVVHSGG | 0.657 ± 0.066 |
| FPPFPPLVPSPP | 0.742 ± 0.0049 |
| PPLPPPFSPLPP | 0.686 ± 0.025 |
| LGPRVGDPDGRF | 0.742 ± 0.019 |
| LAWFDLAPSTLP | 0.827 ± 0.14 |
| WSIVVDDISWSV | 0.698 ± 0.013 |
| VRGLYEHSLGSR | 0.741 ± 0.066 |
| QLLCLFSIPRSA | 0.7241 ± 0.0043 |
| SVRSVFVFGVIK | 0.664 ± 0.017 |
| PPPSSSSPPPPR | 0.704 ± 0.039 |

| Sequence | protein stability index |
| --- | --- |
| LDGLNLVRVVGV | 0.674 ± 0.044 |
| RPLYPGSKVQLL | 0.691 ± 0.024 |
| RLRDMPRDLTFW | 0.706 ± 0.12 |
| WFDGGGWLLFVV | 0.557 ± 0.011 |
| KHKKKKKEYKKK | 0.729 ± 0.03 |
| SPPPPPFCPLPA | 0.646 ± 0.014 |
| VTDSRAIMARRV | 0.645 ± 0.083 |
| SWFSPMCTTSPR | 0.677 ± 0.04 |
| PPPRVPPPVPPL | 0.722 ± 0.047 |
| PLPRLSPFSHPP | 0.701 ± 0.052 |
| YTYPINPLDQTR | 0.7196 ± 0.0027 |
| SVVLGSVHVLTR | 0.661 ± 0.015 |
| GAGRGGGRGRRW | 0.661 ± 0.031 |
| VSSSQPGEYNIG | 0.7088 ± 0.0029 |
| SAAVLRWLASAG | 0.683 ± 0.059 |
| SLSDGGPSCPGV | 0.677 ± 0.032 |
| FGFYTYFRPGLG | 0.698 ± 0.017 |
| ECSFAGIWVDLG | 0.689 ± 0.047 |
| ARPPRASRISSL | 0.81 ± 0.044 |
| PSPAPPSPPSPP | 0.679 ± 0.028 |
| LSLGSSATLTFQ | 0.698 ± 0.03 |
| LFVLSLHLPCFG | 0.498 ± 0.02 |
| GGAMLMLAVEGV | 0.609 ± 0.044 |
| PFPPPPSPPLYP | 0.7292 ± 0.0012 |
| GGGCGLFVFLSL | 0.63 ± 0.058 |
| ARNMGLFVFNLR | 0.6783 ± 0.0043 |

| Sequence | protein stability index |
| --- | --- |
| LIPLPPPPLPPP | 0.623 ± 0.09 |
| REQKTKDKKKRQ | 0.703 ± 0.024 |
| TWIEGGVDRQRG | 0.683 ± 0.074 |
| RKRIPSITLPPP | 0.754 ± 0.063 |
| WVGRIRGMEGWM | 0.696 ± 0.037 |
| YCGPSAGREGGG | 0.771 ± 0.081 |
| LTPEPPRPPTPY | 0.699 ± 0.033 |
| PPSPRNSDPPPL | 0.654 ± 0.071 |
| RWREGWGGFSLG | 0.665 ± 0.025 |
| SDKGKSSVSGSN | 0.678 ± 0.012 |
| SPLTTFPPHRVS | 0.711 ± 0.014 |
| GGTGWVGEMGGR | 0.796 ± 0.069 |
| KKTDNGSYERGE | 0.701 ± 0.018 |
| PPSPLSRYSPRL | 0.754 ± 0.0043 |
| QMGGGGEVGAEG | 0.724 ± 0.009 |
| SPHPPPSSPPPP | 0.674 ± 0.097 |
| LPRSPPCCHVND | 0.628 ± 0.02 |
| RLRGGVPGRTVG | 0.68 ± 0.078 |
| STPFALVFLPFP | 0.688 ± 0.034 |
| LPPPYPRPPPFR | 0.68 ± 0.005 |
| NRNSHSGKIKLK | 0.691 ± 0.049 |
| WVSPALEALYRK | 0.764 ± 0.07 |
| SIWVLLVPRQSI | 0.639 ± 0.11 |
| RKKNEKKEDNKK | 0.747 ± 0.12 |
| LLGHSTPAHVFL | 0.7129 ± 0.0031 |
| EGKKEKKGSKGE | 0.708 ± 0.052 |

| Sequence | protein stability index |
| --- | --- |
| SKFNSLNNHRKG | 0.655 ± 0.033 |
| PSFPLLPPPSLS | 0.6913 ± 0.0051 |
| RGSRFVAGGGSV | 0.702 ± 0.038 |
| SGSFPSLALLSS | 0.642 ± 0.042 |
| TAYRFYSYESSF | 0.678 ± 0.082 |
| WSPGGGPLGLYE | 0.743 ± 0.018 |
| GIMPVRENCGVF | 0.6422 ± 0.0048 |
| LCPPLPPSPPRS | 0.70073 ± 0.00018 |
| GVWGGVGGWGVA | 0.697 ± 0.053 |
| RFWGWCSAVLSS | 0.622 ± 0.056 |
| PPPCRSLPLLPP | 0.6546 ± 0.005 |
| PPPPPPLPHSPP | 0.647 ± 0.095 |
| GGRGVVVVQGAG | 0.6978 ± 0.0013 |
| GQGACWLCVGGR | 0.685 ± 0.02 |
| PVFPLTLPAFSS | 0.815 ± 0.018 |
| VSNVSGKEYINV | 0.681 ± 0.038 |
| GCFVGCDHWGVV | 0.67 ± 0.028 |
| GGCGYGELWAWA | 0.7908 ± 0.0038 |
| LLPSLLRPQPPA | 0.699 ± 0.034 |
| GGGGVVRAWGLR | 0.738 ± 0.043 |
| LSHLILPPSSPS | 0.677 ± 0.013 |
| WGWGGHGIVRRE | 0.812 ± 0.14 |
| AVVVCGGGWWWA | 0.746 ± 0.094 |
| RWVRGDVFQGFC | 0.693 ± 0.052 |
| HQCVNLNTIKWV | 0.634 ± 0.021 |
| CPPPIPPSRPPS | 0.666 ± 0.067 |

| Sequence | protein stability index |
| --- | --- |
| PPNPFPALRSSP | 0.7324 ± 0.0011 |
| TPPSHTVGIWAS | 0.683 ± 0.039 |
| RKTRKKNRIRGI | 0.6857 ± 0.0054 |
| VVGAWGRGGCGG | 0.633 ± 0.01 |
| LPRLPPPPHPCP | 0.741 ± 0.013 |
| PARTPSPPAPSH | 0.657 ± 0.056 |
| WLIKKIKTKQTR | 0.758 ± 0.074 |
| GGGSGGRRLVRF | 0.726 ± 0.023 |
| LFGGCRLVGSVV | 0.711 ± 0.023 |
| GKKPNSGKNKKK | 0.694 ± 0.049 |
| PTPLCPPLAVRL | 0.691 ± 0.032 |
| RFPLCLHLPLLL | 0.55 ± 0.012 |
| FTSGNSWLAVFL | 0.731 ± 0.027 |
| GQVAKVKVRKKK | 0.755 ± 0.052 |
| KQKNKNNVKQPN | 0.693 ± 0.012 |
| PSLPHLPSTSSC | 0.681 ± 0.023 |
| GGCRGDGMMGVG | 0.552 ± 0.072 |
| SHPSALPPISAG | 0.734 ± 0.071 |
| TSYEAKKKWQVI | 0.645 ± 0.025 |
| GQQILGGRSLEG | 0.63 ± 0.035 |
| STSLLTRTSSKL | 0.792 ± 0.015 |
| LRRSRGTVWRWY | 0.5535 ± 0.0032 |
| CHMSLDGPLLGF | 0.728 ± 0.2 |
| PLPPSPTRPPAN | 0.662 ± 0.0099 |
| SQSPPTSPAPHD | 0.706 ± 0.016 |
| PPACPSSRIPVF | 0.615 ± 0.041 |

| Sequence | protein stability index |
| --- | --- |
| KKSERRGQKDYE | 0.696 ± 0.028 |
| SPGSSPPLLSPH | 0.761 ± 0.013 |
| FSVPPLPLPPRL | 0.757 ± 0.095 |
| LTFWLGSLGLWG | 0.72 ± 0.019 |
| NLCRLGHTAGVL | 0.753 ± 0.086 |
| APSPPTRYLPLF | 0.684 ± 0.019 |
| PPPPPRLTPPRL | 0.722 ± 0.09 |
| VDSCASVGQGGL | 0.702 ± 0.044 |
| HIAKQSSRRRRR | 0.68 ± 0.029 |
| RPSPPPLRPFVL | 0.576 ± 0.025 |
| ITRATPILSYKK | 0.677 ± 0.09 |
| FSVGGLVDGRLW | 0.79 ± 0.026 |
| FSGGGRGLVGEV | 0.7 ± 0.039 |
| GWVREAVGFRGG | 0.687 ± 0.028 |
| STVESPNSLPPL | 0.676 ± 0.037 |
| PPHPPNFSSPPP | 0.656 ± 0.023 |
| WKEMRKKVGRGK | 0.696 ± 0.056 |
| RTQRGRMGGEQG | 0.762 ± 0.12 |
| PPHPPPPSPTPP | 0.656 ± 0.019 |
| MKNKSTEKNRKF | 0.72815 ± 0.00016 |
| FAPFVPGPSIKY | 0.705 ± 0.074 |
| CCYCLTVCRWFT | 0.571 ± 0.038 |
| RPPSPPLPPPLS | 0.6906 ± 0.0013 |
| CFGMMVFFHRVI | 0.534 ± 0.076 |
| FSSLLLMEVFLP | 0.686 ± 0.011 |
| TDIRMRRLNRDT | 0.684 ± 0.029 |

| Sequence | protein stability index |
| --- | --- |
| FMYSGIVAIPRG | 0.661 ± 0.025 |
| RAPDHRPGRLQK | 0.724 ± 0.013 |
| SGGCVGLAVAGG | 0.702 ± 0.056 |
| LLAVLSPAAPLP | 0.696 ± 0.058 |
| SSGAIKPDFRMA | 0.7446 ± 0.005 |
| EKIERDKRKKVK | 0.621 ± 0.0076 |
| VAWTYDYTGVLR | 0.626 ± 0.037 |
| RYAGGHRIGFLI | 0.649 ± 0.025 |
| QAYGFEDISFSI | 0.808 ± 0.076 |
| PLAPPPSILPVP | 0.703 ± 0.055 |
| FPPPPFFFIPLP | 0.724 ± 0.048 |
| ASPSAPPRPPTP | 0.697 ± 0.013 |
| GTPPRSGLPLCT | 0.711 ± 0.0099 |
| GNGENKVIVRKS | 0.696 ± 0.045 |
| QTKKKLTQSQRT | 0.694 ± 0.019 |
| ALLLSHFLFFYA | 0.524 ± 0.028 |
| IKIRIAANRTKY | 0.63796 ± 0.00029 |
| RKDNRRIMIKKR | 0.648 ± 0.015 |
| DGECVLGVFVGA | 0.706 ± 0.045 |
| MGYNSRHLDISM | 0.677 ± 0.018 |
